Like-named read-outs stand apart in the source and are kept apart here.
Assays:
[1] = molecular target: PD-1 on activated CD4 and CD8 T-cells; assay: flow cytometry on anti-CD3/anti-CD28-activated CD4 and CD8 T-cells, anti-human IgG secondary antibody, % cells bound IgG
Recombinant human MSLN = molecular target: T1, Recombinant human MSLN (human, UniProt Q13421 296-580, limits assumed); assay: SPR, Reichert 4SPR; antibody captured on Protein A chip, human MSLN flown over
T1 construct: also called mesothelin
Protocol: Recombinant human Vδ1 heterodimer or human MSLN was flown over the cell at a top concentration of 100 nM with the following parameters: 180 s association, 480 s dissociation, flowrate 25 μL/min, running buffer PBS+0.05% Tween 20. All experiments were performed at room temperature.

[2] = molecular target: Vδ1 chain of the γδ TCR on human Vδ1 γδ T cells (human); assay: cell-based or functional assay
[3] = molecular target: T2, TIGIT on activated CD4 T-cells; assay: flow cytometry, anti-human IgG secondary antibody, activated CD4 T-cells
T2 chain: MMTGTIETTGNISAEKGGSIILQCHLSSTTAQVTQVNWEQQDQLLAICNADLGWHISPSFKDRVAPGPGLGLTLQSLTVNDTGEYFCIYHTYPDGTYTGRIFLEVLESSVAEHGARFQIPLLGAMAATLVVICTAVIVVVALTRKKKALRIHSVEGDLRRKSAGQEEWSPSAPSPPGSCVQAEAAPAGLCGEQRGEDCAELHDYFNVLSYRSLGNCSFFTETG

[4] = molecular target: T3, Vδ1 chain of the γδ TCR on human Vδ1 γδ T cells (human); assay: flow cytometry on Vδ1 γδ T-cells, anti-human IgG secondary antibody, % cells bound IgG
T3 construct: whole, on cells; also called cell surface Vδ1 TCR; Vδ1-positive γδ T cells

[5] = molecular target: T4, L1 (DV1-GV4), soluble human Vδ1/Vγ4 γδ TCR heterodimer in leucine zipper format (human); assay: SPR (Reichert 4SPR), antibody on Protein A chip, antigen flown over
T4 construct: Biotinylated in the DELFIA ranking; also called Antigen L1 (TRDV1/TRGV4); human DV1-GV4; not shown: gamma chain: Vγ4 (TRGV4) domain on a TCR constant region, leucine zipper, histidine tag

[6] = molecular target: T3, Vδ1 chain of the γδ TCR on human Vδ1 γδ …; assay: cell-based or functional assay; remark: listed apart in the source
[7] = molecular target: T3, Vδ1 chain of the γδ TCR on human Vδ1 γδ …; assay: flow cytometry, Vδ1 γδ T cells of donor TS164, mAb titrated up to about 500 nM at 4 C, anti-human IgG detection
Protocol: All incubation steps were performed at 4° C. and mAb binding was determined using flow cytometry to measure the median level of fluorescence. Logarithmic four parameter dose-response curves were fitted using GraphPad Prism 9. […] For Vδ1-positive γδ T cell, data is represented as the mean two donors.
A range of target cells were assayed to determine the specificity and affinity of Vδ1 mAb binding. This included expanded skin-derived Vδ1 γδ T-cells, HEK293T cells, Raji cells, and multiple leukocyte subsets within human primary blood mononuclear cells. Adherent or semi-adherent cells (skin-derived Vδ1 γδ T-cells, HEK293T) were detached from tissue culture flask and resuspended in PBS. Similarly, non-adherent cell types (Raji, PBMC), were harvested and resuspended in PBS. Cells were seeded at a final density of 100,000 cells per well in v-bottom 96-well plates. Cells underwent centrifugation and the cell pellets were resuspended in FcR blocking reagent according to the manufacturer's instructions, and incubated for 20 minutes at 4C prior to a further wash. […] To determine the quantity of mAb bound to the cell surface, the cells were then stained with a murine anti-human IgG secondary antibody, conjugated to APC (dilution: 1:100). For Vδ1 γδ T-cells, HEK293T and Raji, the cells were also stained solely with a viability dye.

[8] = molecular target: T4, L1 (DV1-GV4), soluble human Vδ1/Vγ4 γδ …; assay: SPR (Reichert 4SPR), antibody on Protein A chip, antigen flown over; remark: listed apart in the source
Protocol: Recombinant human Vδ1 heterodimer or human TIGIT was flown over the cell at a top concentration of 100 nM.

[9] = molecular target: T4, L1 (DV1-GV4), soluble human Vδ1/Vγ4 γδ …; assay: as above; remark: listed apart in the source
Protocol: Recombinant human Vδ1 heterodimer or human OX40 was flown over the cell at a top concentration of 100 nM.

[10] = molecular target: T5, OX40 on activated CD4 T-cells; assay: flow cytometry on anti-CD3/anti-CD28-activated CD4 T-cells, anti-human IgG secondary antibody, % cells bound IgG
T5 construct: also called OX40+ CD4 T-cells
T5 chain: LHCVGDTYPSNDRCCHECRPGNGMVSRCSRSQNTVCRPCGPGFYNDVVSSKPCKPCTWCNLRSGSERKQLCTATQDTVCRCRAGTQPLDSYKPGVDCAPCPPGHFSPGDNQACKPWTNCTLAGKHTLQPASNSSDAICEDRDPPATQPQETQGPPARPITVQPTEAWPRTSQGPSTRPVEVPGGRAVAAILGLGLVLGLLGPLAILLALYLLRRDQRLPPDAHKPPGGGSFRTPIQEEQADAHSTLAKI
Protocol: Initially CD4+ T-cells were negatively selected by magnetic sorting from PBMC buffy coats extracted from whole blood. Following activation by anti-CD3/anti-CD28 antibodies conjugated to Dynabeads (Invitrogen), cell surface expression of OX40 was elevated on CD4 T-cells. […] After washing, cells were incubated for a further 15 minutes with anti-human IgG secondary antibodies before washing and fixing. The amount of antibody bound to each cell type was determined by flow cytometry.

[11] = molecular target: T3, Vδ1 chain of the γδ TCR on human Vδ1 γδ …; assay: flow cytometry on Vδ1 γδ T-cells, anti-human IgG secondary antibody, % IgG bound cells
Protocol: After washing, cells were incubated for a further 15 minutes with anti-human IgG secondary antibodies before washing and fixing. The amount of antibody bound to each cell type was determined by flow cytometry.

T3 sequence (A0A1B0GX56 22-115, stated change not applied): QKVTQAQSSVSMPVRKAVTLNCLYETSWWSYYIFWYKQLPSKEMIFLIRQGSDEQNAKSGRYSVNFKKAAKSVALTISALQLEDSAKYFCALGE
T4 sequence (main, as listed by the source): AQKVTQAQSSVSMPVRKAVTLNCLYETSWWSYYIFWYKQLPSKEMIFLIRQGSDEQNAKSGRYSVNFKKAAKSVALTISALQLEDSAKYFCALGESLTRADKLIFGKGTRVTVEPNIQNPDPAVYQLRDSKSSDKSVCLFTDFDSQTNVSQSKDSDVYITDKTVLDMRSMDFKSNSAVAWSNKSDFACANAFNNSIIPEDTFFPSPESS
PD-1 on activated CD4 and CD8 T-cells, sequence (chain, as listed by the source limits assumed): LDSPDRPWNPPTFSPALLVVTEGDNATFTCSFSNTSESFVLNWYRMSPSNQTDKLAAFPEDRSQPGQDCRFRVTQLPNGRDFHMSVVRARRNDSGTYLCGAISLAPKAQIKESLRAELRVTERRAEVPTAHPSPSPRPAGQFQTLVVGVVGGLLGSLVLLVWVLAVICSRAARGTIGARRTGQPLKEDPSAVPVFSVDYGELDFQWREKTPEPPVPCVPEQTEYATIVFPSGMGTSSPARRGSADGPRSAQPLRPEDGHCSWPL
T1 sequence (Q13421 other isoform, or with tags, fused parts or gaps limits assumed): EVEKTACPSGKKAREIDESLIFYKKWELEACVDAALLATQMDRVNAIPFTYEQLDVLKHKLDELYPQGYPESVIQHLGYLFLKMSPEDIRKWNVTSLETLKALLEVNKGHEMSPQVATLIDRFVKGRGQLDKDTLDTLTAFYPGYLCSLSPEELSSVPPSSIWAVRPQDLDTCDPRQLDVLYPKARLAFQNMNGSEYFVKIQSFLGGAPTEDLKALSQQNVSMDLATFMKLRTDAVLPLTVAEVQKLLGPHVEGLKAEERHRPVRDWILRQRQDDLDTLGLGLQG

binding result [1]: no binding (tested: 200 nM) | binding result (Recombinant human MSLN): no binding | IC50 (read off the curve), Vδ1 TCR downregulation, γδ T-cells alone [2]: ~0.1 nM | binding result [3]: no binding (tested: 200 nM) | EC50 (read off the curve) [4]: ~0.2 nM | Kd [5]: 0.01 nM | IC50 (read off the curve), Vδ1 TCR downregulation, γδ T-cells with activated OX40+ CD4 T-cells [6]: ~0.1 nM | EC50 (read off the curve) [7]: ~2 nM | Kd [8]: 0.29 nM | Kd [9]: 1.25 nM | binding result [10]: no binding (tested: 200 nM) | EC50 (read off the curve) [11]: ~0.3 nM
B1: ADT1-4-2 (antibody, IgG1, V domains shown)
VH: EVQLQQSGPGLVKPSQTLSLTCAISGDSVSSKSAAWNWIRQSPSRGLEWLGRTYYRSKWSTDYAASVKSRITINPDTSKNQLSLQLNSVTPEDTAVYYCARTWVGYVDRWGQGTLVTVSS
VL: DIQMTQSPPALSASVGDRVTITCRASQDINDWLAWYQHKPGKAPKLLIYDASSLESGVPLRFSGSGSGTEFTLTISSLQPDDFATYYCQQKYSAPQVTFGQGTRLEIK
notes: IgG1

— patent US20230028110A1 (ADAPTATE BIOTHERAPEUTICS, published 2023)
